Type in all cases: cell-based
The target in test [1] is T1, murine TLR2 (HEK-Blue™-mTLR2 cells) (Mus musculus, UniProt Q9QUN7).
T1 construct: host or cells: HEK-Blue-mTLR2 (HEK cells co-transfected with murine TLR2 and the SEAP reporter)
As to the kind of experiment: TLR2 agonism in HEK-Blue-mTLR2 cells (SEAP reporter). To be noted: for SEAP production / TLR2 agonism in HEK-Blue™-mTLR2: Example 2, FIG. 4A-4C, 10-12 h incubation, absorbance 635 nm; for SEAP production / TLR2 agonism in HEK-Blue™-mTLR2 / TLR2 agonism for mTLR2: result in words; for TLR2 agonism for mTLR2: Example 8, FIG. 6A, dilution series 10^−6 M to 10^−11 M. The method, then:
(§1) HEK-Blue™ Detection medium, HEK-Blue™-hTLR2 and HEK-Blue™-mTLR2 were purchased from Invivogen. These HEK-Blue cells were produced by co-transfection of both reporter gene SEAP (secreted embryonic alkaline phosphatase) and either human or murine TLR2, respectively. The SEAP reporter gene is under the control of the IFN-B minimal promoter fused to five AP-1 and five NFkB binding sites. Cells were cultured according to manufacturer's instructions.
(§2) On the day of the assay, TLR agonists 510, 520, 530, 540, 550 or PBS (negative control) were added at the indicated concentrations in 20 μl volume of endotoxin free water in a 96-well plate. HEK-Blue™-hTLR2 or […] were resuspended at ˜2.78×10^5 cells/ml in HEK-Blue™ Detection medium and 180 μl of the cell suspension added to each well (˜5×10^4 cells). Cells were incubated for 10-12 h at 37° C. in 5% CO2. SEAP expression was quantified using an EnSpire plate reader (PerkinElmer) at […]. Data presented as mean+/−SD ABS or mABS (635 nm) values for triplicate wells following background subtraction.
(§3) The TLR2 agonism of the agonists in Table 4 were investigated in HEK-Blue™-mTLR2 (FIG. 6A) and HEK-Blue™-hTLR2 (FIG. 6B) cells by following a procedure analogous to that described in section 2.1 of Example 2 across a 6-log10 dilution series (10^−6 M to 10^−11 M). (R/S)-Pam-1-Cys-NH2 was tested only at 10^−6 and 10^−9 M. Data presented as mean+/−SD absorbance (635 nm) values for triplicate wells following background subtraction, with dotted lines representing absorbance in wells treated with media only.

Test [2] deals with T2, human TLR2 (HEK-Blue™-hTLR2 cells) (Homo sapiens, UniProt O60603).
T2 construct: host or cells: HEK-Blue-hTLR2 (HEK cells co-transfected with human TLR2 and the SEAP reporter)
T2 sequence (O60603 21-784): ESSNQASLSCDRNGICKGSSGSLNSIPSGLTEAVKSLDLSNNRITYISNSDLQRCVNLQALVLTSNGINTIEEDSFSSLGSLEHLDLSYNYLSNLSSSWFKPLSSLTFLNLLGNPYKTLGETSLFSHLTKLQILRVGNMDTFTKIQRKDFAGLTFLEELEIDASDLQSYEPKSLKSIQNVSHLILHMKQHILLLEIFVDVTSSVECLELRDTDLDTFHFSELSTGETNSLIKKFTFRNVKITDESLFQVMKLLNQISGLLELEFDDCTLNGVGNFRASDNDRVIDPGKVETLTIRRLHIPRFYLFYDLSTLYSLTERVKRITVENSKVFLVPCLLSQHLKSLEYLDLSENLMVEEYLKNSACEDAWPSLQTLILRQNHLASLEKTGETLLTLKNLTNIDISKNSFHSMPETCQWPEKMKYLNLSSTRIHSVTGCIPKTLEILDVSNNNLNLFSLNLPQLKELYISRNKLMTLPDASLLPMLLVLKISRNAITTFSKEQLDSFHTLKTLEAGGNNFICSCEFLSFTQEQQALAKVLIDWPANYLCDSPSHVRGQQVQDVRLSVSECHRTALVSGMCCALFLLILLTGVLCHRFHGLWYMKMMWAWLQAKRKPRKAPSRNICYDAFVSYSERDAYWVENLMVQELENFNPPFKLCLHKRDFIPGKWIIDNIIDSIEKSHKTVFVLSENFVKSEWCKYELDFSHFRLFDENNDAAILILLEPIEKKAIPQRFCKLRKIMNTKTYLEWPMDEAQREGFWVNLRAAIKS
As to the kind of experiment: TLR2 agonism in HEK-Blue-hTLR2 cells (SEAP reporter). The following applies: for SEAP production / TLR2 agonism in HEK-Blue™-hTLR2: Example 2, FIG. 4A-4C, 10-12 h incubation, absorbance 635 nm. The method, then:
as §1, §2, §3

For test [3], the system named is CD8+ T cell clones with TLR2+ HLA-A2+ lymphoblastoid B-cell lines (LCL) as antigen-presenting cells. As to the kind of experiment: Peptide processing and presentation to CD8+ T-cell clones by LCL (CD137 expression, flow cytometry). To be noted: result in words. The procedure: Epstein-Barr Virus-transformed TLR2+ HLA-A2+ lymphoblastoid B-cell lines (LCL) were used as antigen-presenting cells in all peptide processing and presentation assays. LCL were incubated for 16 h in RF10+peptide/construct as indicated at desired concentrations. Untreated LCL were incubated in RF10 only. LCL/construct incubation was performed in 96 well plates (U-bottom, BD Biosciences) or in 48wp (flat bottom, BD Biosciences) depending of the nature of the assay and the numbers of LCL required per treatment. Following incubation, LCL were thoroughly washed with RPMI 1640 to remove unbound construct/peptide.
To enable flow cytometric detection, CD8+ T cell clones were pre-stained with 0.5 μM CellTrace™ Violet (“CTV”) (Life Technologies™) following manufacturer's protocols prior to seeding into APC wells. Loaded, washed LCL and CTV-stained T cell clones were seeded in 96 well plate wells (U-bottom) at a ratio of 4:1 (LCL: T cell) in duplicate (typical numbers of cells used were 1.25×10^4 cells/ml T cells and 5×10^4 cells/ml APC). Following seeding, plates were gently centrifuged (≤300×g, 3 minutes) to allow immediate interaction, and incubated for 26 hours in a standard cell culture incubator.
To detect T cell activation, samples were stained with anti-CD8:AlexaFluor700 and anti-CD137:PE antibodies (both Biolegend). […]

Entries after “also recorded” stand apart in the source; their conditions may differ. Where no end group is shown, it is not given here. [ ]: non-standard residue; d: D form. Where only a bound is given, the exact number is not on record here.

T1 sequence (Q9QUN7 25-784): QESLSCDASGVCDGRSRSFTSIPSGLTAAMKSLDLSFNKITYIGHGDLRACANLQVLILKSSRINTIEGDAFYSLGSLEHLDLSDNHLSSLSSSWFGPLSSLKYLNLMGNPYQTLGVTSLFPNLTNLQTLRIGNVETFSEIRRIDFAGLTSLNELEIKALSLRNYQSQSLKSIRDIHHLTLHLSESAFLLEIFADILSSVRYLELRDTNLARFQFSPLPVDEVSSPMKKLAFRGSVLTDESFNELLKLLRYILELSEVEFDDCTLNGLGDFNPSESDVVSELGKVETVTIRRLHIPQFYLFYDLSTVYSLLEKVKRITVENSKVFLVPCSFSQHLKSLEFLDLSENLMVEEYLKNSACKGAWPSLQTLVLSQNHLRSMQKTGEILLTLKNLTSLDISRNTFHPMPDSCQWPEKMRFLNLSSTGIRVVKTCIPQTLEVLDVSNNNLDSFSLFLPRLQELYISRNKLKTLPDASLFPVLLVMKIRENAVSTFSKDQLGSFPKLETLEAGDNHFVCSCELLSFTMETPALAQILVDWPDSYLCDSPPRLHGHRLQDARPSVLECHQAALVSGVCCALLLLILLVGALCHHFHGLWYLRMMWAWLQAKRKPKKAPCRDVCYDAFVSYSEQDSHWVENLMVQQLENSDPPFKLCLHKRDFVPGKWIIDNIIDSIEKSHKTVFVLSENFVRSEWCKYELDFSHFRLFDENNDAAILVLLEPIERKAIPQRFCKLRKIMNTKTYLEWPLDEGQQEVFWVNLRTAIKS

In the case of “521: Pam2Cys-SKKKK conjugated to peptide NLVPMVATVK(Ac) (Pam2Cys-SKKKKNLVPMVATVK(Ac)) [compound 521, reference compound]”, the “SEAP production / TLR2 agonism in HEK-Blue™-mTLR2” value in test [1] is on record as “relative loss of agonism when compared to unconjugated Pam3Cys-SKKKK”. The “SEAP production / TLR2 agonism in HEK-Blue™-hTLR2” value in test [2] (result in words) is on record as “relative loss of agonism when compared to unconjugated Pam3Cys-SKKKK”.

Consider “551: Homo-Pam2Cys(NHAc)-SKKKK conjugated to peptide NLVPMVATVK(Ac) ({homoPam2Cys(NHAc)}-SKKKKNLVPMVATVK(Ac); also: conjugated to lipopeptide, linkage not given here) [compound 551]”, for which, in test [1], the “SEAP production / TLR2 agonism in HEK-Blue™-mTLR2” value is “did not result in any loss of agonism, and homoPam2Cys(NHAc)-SKKKK-NLVPMVATVK(Ac) remained a more potent agonist than Pam3Cys-SKKKK, particularly at nM concentrations”. Moreover, the “SEAP production / TLR2 agonism in HEK-Blue™-hTLR2” value in test [2] (result in words) is “did not result in any loss of agonism, and homoPam2Cys(NHAc)-SKKKK-NLVPMVATVK(Ac) remained a more potent agonist than Pam3Cys-SKKKK, particularly at nM concentrations”. For the same substance, the “T-cell clone activation (live clonal cells positive for CD137)” value in test [3] (NLV-bearing constructs, FIG. 4D, LCL loaded 16 h, co-culture 26 h) was “comparable T-cell clone activation to NLV-bearing-Pam2Cys-SKKKK (521), and superior T-cell clone activation to NLV-bearing-Pam1Cys-SKKKK (511)”.

“552: Homo-Pam2Cys(NHAc)-SKKKK conjugated to peptide VPGVLLKEFTVSGNILTIRLTAADHR (homo-Pam2Cys(NHAc)-SKKKK conjugate) [compound 552]”: the “T-cell clone activation (live clonal cells positive for CD137)” value in test [3] (VPG-bearing constructs and VPG long peptide, FIG. 4E, epitope EFTVSGNIL) is recorded as “superior T-cell clone activation to VPG-bearing-Pam1Cys-SKKKK (512); also recorded: superior to VPG peptide alone (500)”.

On to “(R)-Pam2Cys-SKKKK-NH2: enantiopure epimeric TLR agonist of Table 4 ([(R)‑Pam2Cys]SKKKK-NH2; also: (R) epimer, enantiopure) [reference compound]”, for which the “TLR2 agonism for mTLR2” value in test [1] was “increase in NKκB production at 10^−10 and 10^−11 M only”.

Take “(R)-Pam3Cys: enantiopure epimeric TLR agonist of Table 4 (CSKKKK) [reference compound]”: the “NFκB production maintained at lower concentration than paired (S)-version” value is given as no less than 10 fold in test [1] (mTLR2, (R)- vs (S)-epimer) and no less than 10 fold in test [2] (hTLR2, (R)- vs (S)-epimer).

As for “Pam1Cys-SKKKK-NH2: TLR agonist of Table 4 ([Pam1Cys]SKKKK-NH2) [reference compound]”, the “TLR2 agonism for mTLR2” value in test [1] was “no agonism at any concentration for mTLR2”. Moreover, the “TLR2 agonism for hTLR2” value in test [2] (Example 8, FIG. 6B, dilution series 10^−6 M to 10^−11 M, result in words) was “agonism for hTLR2 at 10^−6 M but not 10^−9 M”.

Take “Pam1Cys-SKKKK: known TLR2 agonist, prepared in-house; lipid/linker component Pam1Cys-SKKKK without peptide ([Pam1Cys]SKKKK) [reference compound]”: the “SEAP production / TLR2 agonism in HEK-Blue™-mTLR2” value in test [1] is “not active in HEK-Blue™-mTLR2 at sub-μM concentrations”.

Take “Pam2Cys-SKKKK: known TLR2 agonist, prepared in-house; lipid/linker component Pam2Cys-SKKKK without peptide ([Pam2Cys]SKKKK) [reference compound]”: in test [1], the “SEAP production / TLR2 agonism in HEK-Blue™-mTLR2” value is reported as “most potent agonist tested”. In addition, in test [2] (result in words), the “SEAP production / TLR2 agonism in HEK-Blue™-hTLR2” value is given as “most potent agonist tested”.

For the substance “homoPam2Cys(NH2)-SKKKK: Lipopeptide TLR2 agonist of the invention: Homo-Pam2Cys(NH2) lipid component with SKKKK linker, no epitope peptide ([homoPam2Cys(NH2)]SKKKK)”, in test [1], the “SEAP production / TLR2 agonism in HEK-Blue™-mTLR2” value is “equivalent SEAP production to Pam3Cys-SKKKK; also recorded: demonstrably more potent TLR2 agonists than Pam1CYs-SKKKK; also recorded: active in both HEK-Blue™-mTLR2 and -hTLR2 to sub-nM concentrations”. Besides, the “SEAP production / TLR2 agonism in HEK-Blue™-hTLR2” value in test [2] (result in words) is “comparable production in HEK-Blue™-hTLR2; also recorded: demonstrably more potent TLR2 agonists than Pam1CYs-SKKKK; also recorded: active in both HEK-Blue™-mTLR2 and -hTLR2 to sub-nM concentrations”.

Consider “homoPam2Cys(NHAc)-SKKKK: Lipopeptide TLR2 agonist of the invention: Homo-Pam2Cys(NHAc) lipid component with SKKKK linker, no epitope peptide ([homoPam2Cys(NHAc)]SKKKK)”, for which, in test [1], the “SEAP production / TLR2 agonism in HEK-Blue™-mTLR2” value is “equivalent SEAP production to the most potent agonist tested (Pam2Cys-SKKKK) at ≥1 nM and comparable production at sub-nM concentrations; also recorded: demonstrably more potent agonist than Pam3Cys-SKKKK or homoPam2Cys(NH2)-SKKKK; also recorded: demonstrably more potent TLR2 agonists than Pam1CYs-SKKKK; also recorded: active in both HEK-Blue™-mTLR2 and -hTLR2 to sub-nM concentrations”. Besides, in test [2] (result in words), the “SEAP production / TLR2 agonism in HEK-Blue™-hTLR2” value is “equivalent SEAP production to the most potent agonist tested (Pam2Cys-SKKKK) at ≥1 nM and comparable production at sub-nM concentrations; also recorded: demonstrably more potent agonist than Pam3Cys-SKKKK or homoPam2Cys(NH2)-SKKKK; also recorded: demonstrably more potent TLR2 agonists than Pam1CYs-SKKKK; also recorded: active in both HEK-Blue™-mTLR2 and -hTLR2 to sub-nM concentrations”.
